Measurements published in patent US20230032087A1.

Target: CD19 on KILR Raji cells (UniProt P15391)
Assay: cell-based or functional assay

Sequence of CD19 on KILR Raji cells (P15391 20-556 limits assumed): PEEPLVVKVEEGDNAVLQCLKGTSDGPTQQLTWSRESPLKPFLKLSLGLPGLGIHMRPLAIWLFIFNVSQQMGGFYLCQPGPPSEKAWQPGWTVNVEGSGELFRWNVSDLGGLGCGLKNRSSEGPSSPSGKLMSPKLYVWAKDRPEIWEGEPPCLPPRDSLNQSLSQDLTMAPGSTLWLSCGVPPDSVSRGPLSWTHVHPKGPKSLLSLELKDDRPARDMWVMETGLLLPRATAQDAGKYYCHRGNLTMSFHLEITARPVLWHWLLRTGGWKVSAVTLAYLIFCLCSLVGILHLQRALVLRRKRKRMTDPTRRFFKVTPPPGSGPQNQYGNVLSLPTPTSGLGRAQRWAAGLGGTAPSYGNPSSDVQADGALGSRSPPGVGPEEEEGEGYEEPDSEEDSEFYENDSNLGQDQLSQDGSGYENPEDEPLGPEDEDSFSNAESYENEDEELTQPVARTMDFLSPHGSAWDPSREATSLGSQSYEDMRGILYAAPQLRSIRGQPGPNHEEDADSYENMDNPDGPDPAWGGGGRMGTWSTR

blinatumomab (bispecific antibody)
EC50 of T cell-redirected killing of KILR Raji cells, +HSA (15 mg/mL): 10.8 ng/mL
EC50 of T cell-redirected killing of KILR Raji cells, -HSA: 2.85 ng/mL
